According to patent publication US20090221680, “Aptamers that bind thrombin with high affinity” (published 2009):

Tests used:
[1] = molecular target: T1, thrombin (endogenous, clotting assay in plasma or whole blood) (Homo sapiens, UniProt P00734;P00734 P00734:328-363,P00734:364-622); experiment: inhibition; PT at 10 uM, instrument maximum
[2] = molecular target: T2, thrombin (alpha-thrombin) (Homo sapiens, UniProt P00734;P00734 P00734:315-363,P00734:364-622); experiment: filter; DPBS Ca2+ Mg2+, 0.1 mg/ml BSA, room temp
[3] = molecular target: T1, thrombin (endogenous, clotting assay in …); experiment: inhibition; PT at 10 uM
prothrombin = prothrombin (Homo sapiens, UniProt P00734 P00734:44-622); experiment: filter; 50 nM prothrombin; conditions: tags: Athens Research
Outline: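 Trace 5′-³²P-labeled RNA clones incubated ±50 nM prothrombin with 0.1 mg/ml BSA in 1×DPBS (with Ca²⁺/Mg²⁺), 30 min. Bound RNA captured on nitrocellulose, free RNA on nylon; filters quantified by phosphorimaging. Single-point screen.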

[4] = molecular target: T2, thrombin (alpha-thrombin); experiment: filter; DPBS Ca2+ Mg2+, 0.1 mg/ml BSA
[5] = molecular target: T2, thrombin (alpha-thrombin); experiment: filter; NB, non binder
[6] = molecular target: T1, thrombin (endogenous, clotting assay in …); experiment: inhibition; ACT at 10 uM
[7] = molecular target: thrombin (endogenous, in vivo, ACT of whole blood) (Macaca fascicularis, UniProt A0A2K5UZ51;A0A2K5UZ51 A0A2K5UZ51:325-360,A0A2K5UZ51:361-619); experiment: inhibition; maximum ACT in monkey, IV bolus 0.46 umol/kg
[8] = molecular target: T2, thrombin (alpha-thrombin); experiment: filter
[9] = molecular target: T1, thrombin (endogenous, clotting assay in …); experiment: inhibition; PT at 10 uM, parent 300 s
[10] = molecular target: T2, thrombin (alpha-thrombin); experiment: filter; DPBS Ca Mg, BSA, RT
thrombin = thrombin (Sus scrofa, UniProt Q19AZ8;Q19AZ8 Q19AZ8:316-364,Q19AZ8:365-622); experiment: filter; species cross-reactivity

Q: With TCCTGATCGGATGTGGTGGGTTATTGGTTTGGGTGGCTGAGGATCGATC (ssDNA) [AMX(453)_F6] as the binder, how does the activity [1] read?
A: 300 s

Q: TCCCTGCAATTCGATCAGCAGGGGTGGTGTGGGTGGCTGAGGATCGATC (ssDNA) [AMX(395)_A1] was tested. Which Kd [2] did it give?
A: 6.4 nM

Q: Which activity [1] does the source give for TCCCATCGAGCTCAGTCTAGGATGGGTAGGGTGGTGGCTGAGGATCGATC (ssDNA) [AMX(453)_B6] here?
A: 300 s

Q: Which activity [3] does the source give for TCCCATCTTCTGTAGCCTAGGTTGGGTAGGGTGGTGGCTGAGGATCGATC (ssDNA) [AMX(398)_H5] here?
A: 71 s

Q: What does the source list for TCCCGATTGGAAAGCCTAGGATGGGTAGGGTGGTGGCTGAGGATCGATC (ssDNA) [AMX(399)_F12]?
A: binding signal (prothrombin): 48.2 % bound; activity [3]: 74.9 s; Kd [4]: 0.66 nM

Q: Does ACTGCCTAGGTTGGGTAGGGUGGTGGCAGT (XNA, 2'-OMe U21, rest DNA) [ARC2633] bind [5]?
A: no binding

Q: Which binding signal (prothrombin) does the source give for TCCCCGATGTGTCAGCCTAGGGTGGTTAGGGTGGTGGCTGAGGATCGATC (ssDNA) [AMX(398)_C5] here?
A: 19.2 % bound

Q: What about the activity [3] of the same binder?
A: 64.7 s

Q: And the Kd [4]?
A: 2.2 nM

Q: Which activity [6] does the source give for CGCCTAGGTTGGGTAGGGTGGTGGCG (ssDNA, 5'-hexylamine) [ARC2324] here?
A: 424 s

Q: ACTGCCTAGGTTGGGTAGGGTGGTGGCAGT (ssDNA) [ARC2169] was tested. Which activity [7] did it give?
A: 542 s

Q: And the Kd [8]?
A: 0.135 nM

Q: Does ACTGCCTAGGTUGGGTAGGGTGGTGGCAGT (XNA, 2'-OMe U12, rest DNA) [ARC2624] bind [5]?
A: no binding

Q: TCCCGAGCGATACTGCCTAGGCTGGGTAGGGTGGTGGCTGAGGATCGATC (ssDNA) [AMX(398)_C10] was tested. Which binding signal (prothrombin) did it give?
A: 40.9 % bound

Q: What about the activity [3] of the same binder?
A: 58.8 s

Q: And the Kd [4]?
A: 3.27 nM

Q: How did the activity [1] turn out when TCCCGAGCGATATTGCCTAGGTTGGGTAGGGTGGTGGCTGAGGATCGATC (ssDNA) [AMX(454)_F2] was run?
A: 300 s

Q: Which results are given for TCCCGAGGGACGACGCCTAGGTTGGGTAGGGTGGTGGCTGAGGATCGATC (ssDNA) [AMX(399)_C11]?
A: binding signal (prothrombin): 41.6 % bound; activity [3]: 52.6 s; Kd [4]: 1.74 nM

Q: ACTGCCTAGGTTGGGTAGGGTGGTGGCAGT (ssDNA, 5'-PEG 10 kDa via hexylamine) [ARC2323] was tested. Which activity [6] did it give?
A: 514 s

Q: TCCCATGAACTCAGGGTAATTTTTTGGTGTGGGTGGCTGAGGATCGATC (ssDNA) [AMX(398)_D9] was tested. Which binding signal (prothrombin) did it give?
A: 41.8 % bound

Q: And the activity [3]?
A: 80.8 s

Q: What about the Kd [4] of the same binder?
A: 5.64 nM

Q: GGTTGGGTAGGGTGG (ssDNA) [Minimer 3] was tested. Which activity [9] did it give?
A: 25.8 s

Q: How did the Kd [10] turn out when ACTGCCTAGGTTGGGTAGGGTGGTGGCAGT (ssDNA, PS linkage between nt 1 and 2) [ARC2644] was run?
A: 0.183 nM

Q: GGCCGATCAGGCTAGGTTGGGTAGGGTGGTGGCTGAGGATCGGCC (ssDNA) [Minimer 7] was tested. Which activity [9] did it give?
A: 83.3 s

Q: Which activity [6] does the source give for CGCCTAGGTTGGGTAGGGTGGTGGCG (ssDNA, 5'-PEG 10 kDa via hexylamine) [ARC2329] here?
A: 664 s

Q: How did the activity [7] turn out when CGCTAGGTTGGGTAGGGTGGTGCG (ssDNA, 2'-OMe at positions 1, 2, 23, 24) [ARC2949] was run?
A: 403 s

Q: For CCGGCTAGGTTGGGTAGGGTGGTGGCTGG (ssDNA) [Minimer 11], which activity [9] is on record?
A: 27.9 s

Q: Which results are given for CGCCTAGGTTGGGTAGGGTGGTGGCG (ssDNA) [ARC2172]?
A: activity [7]: 527 s; binding result (thrombin): binds; Kd [8]: 0.14 nM
